Literature values, collected in PMC3290099.

Target: CIB1 (Homo sapiens) (UniProt Q99828)
UniProt Q99828, sequence (Q99828 2-191): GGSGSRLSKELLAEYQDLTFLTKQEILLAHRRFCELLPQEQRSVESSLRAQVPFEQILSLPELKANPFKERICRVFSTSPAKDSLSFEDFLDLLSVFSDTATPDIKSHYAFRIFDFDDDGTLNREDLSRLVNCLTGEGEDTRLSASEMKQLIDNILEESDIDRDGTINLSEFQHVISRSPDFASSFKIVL

Kd: 1400 nM
Substance: Integrin αIIb (from UniProt P08514)
